The source of these data is article PMC8298264, “Function of cofactor Akirin2 in the regulation of gene expression in model human neutrophil-like HL60 cells” (Bioscience Reports, 2021).

This assay concerns human HL60 cells. The assay is described as follows: SWATH-MS proteomics, differential protein representation, akirin2 KO vs WT HL60 cells. Format: cell-based. The following applies: akirin2 KO vs WT HL60 cells; sheet "Under-represented in KO". The procedure, abridged: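 Differential representation compares akirin2 KO with WT HL60 across three biological replicates, 5 µg digest each, acquired by data-independent SWATH on a 120-min gradient. Library built from combined IDA runs searched with Paragon; proteins accepted at 1% FDR, with total-area-sum normalization.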

B1: sp¦P63151¦2ABA_HUMAN (protein, UniProt P63151 2-447, looked up)
Serine/threonine-protein …: AGAGGGNDIQWCFSQVKGAVDDDVAEADIISTVEFNHSGELLATGDKGGRVVIFQQEQENKIQSHSRGEYNVYSTFQSHEPEFDYLKSLEIEEKINKIRWLPQKNAAQFLLSTNDKTIKLWKISERDKRPEGYNLKEEDGRYRDPTTVTTLRVPVFRPMDLMVEASPRRIFANAHTYHINSISINSDYETYLSADDLRINLWHLEITDRSFNIVDIKPANMEELTEVITAAEFHPNSCNTFVYSSSKGTIRLCDMRASALCDRHSKLFEEPEDPSNRSFFSEIISSISDVKFSHSGRYMMTRDYLSVKIWDLNMENRPVETYQVHEYLRSKLCSLYENDCIFDKFECCWNGSDSVVMTGSYNNFFRMFDRNTKRDITLEASRENNKPRTVLKPRKVCASGKRKKDEISVDSLDFNKKILHTAWHPKENIIAVATTNNLYIFQDKVN
For the molecule B1, the “Fold Change” value turned out to be 0.3625 and the “Log (Fold Change)” value is reported as -0.4407.

B2: sp¦Q29RF7¦PDS5A_HUMAN (protein, UniProt Q29RF7 1-1337, looked up)
Sister chromatid cohesion …: MDFTAQPKPATALCGVVSADGKIAYPPGVKEITDKITTDEMIKRLKMVVKTFMDMDQDSEDEKQQYLPLALHLASEFFLRNPNKDVRLLVACCLADIFRIYAPEAPYTSHDKLKDIFLFITRQLKGLEDTKSPQFNRYFYLLENLAWVKSYNICFELEDCNEIFIQLFRTLFSVINNSHNKKVQMHMLDLMSSIIMEGDGVTQELLDSILINLIPAHKNLNKQSFDLAKVLLKRTVQTIEACIANFFNQVLVLGRSSVSDLSEHVFDLIQELFAIDPHLLLSVMPQLEFKLKSNDGEERLAVVRLLAKLFGSKDSDLATQNRPLWQCFLGRFNDIHVPVRLESVKFASHCLMNHPDLAKDLTEYLKVRSHDPEEAIRHDVIVTIITAAKRDLALVNDQLLGFVRERTLDKRWRVRKEAMMGLAQLYKKYCLHGEAGKEAAEKVSWIKDKLLHIYYQNSIDDKLLVEKIFAQYLVPHNLETEERMKCLYYLYASLDPNAVKALNEMWKCQNMLRSHVRELLDLHKQPTSEANCSAMFGKLMTIAKNLPDPGKAQDFVKKFNQVLGDDEKLRSQLELLISPTCSCKQADICVREIARKLANPKQPTNPFLEMVKFLLERIAPVHIDSEAISALVKLMNKSIEGTADDEEEGVSPDTAIRSGLELLKVLSFTHPTSFHSAETYESLLQCLRMEDDKVAEAAIQIFRNTGHKIETDLPQIRSTLIPILHQKAKRGTPHQAKQAVHCIHAIFTNKEVQLAQIFEPLSRSLNADVPEQLITPLVSLGHISMLAPDQFASPMKSVVANFIVKDLLMNDRSTGEKNGKLWSPDEEVSPEVLAKVQAIKLLVRWLLGMKNNQSKSANSTLRLLSAMLVSEGDLTEQKRISKSDMSRLRLAAGSAIMKLAQEPCYHEIITPEQFQLCALVINDECYQVRQIFAQKLHKALVKLLLPLEYMAIFALCAKDPVKERRAHARQCLLKNISIRREYIKQNPMATEKLLSLLPEYVVPYMIHLLAHDPDFTRSQDVDQLRDIKECLWFMLEVLMTKNENNSHAFMKKMAENIKLTRDAQSPDESKTNEKLYTVCDVALCVINSKSALCNADSPKDPVLPMKFFTQPEKDFCNDKSYISEETRVLLLTGKPKPAGVLGAVNKPLSATGRKPYVRSTGTETGSNINVNSELNPSTGNRSREQSSEAAETGVSENEENPVRIISVTPVKNIDPVKNKEINSDQATQGNISSDRGKKRTVTAAGAENIQQKTDEKVDESGPPAPSKPRRGRRPKSESQGNATKNDDLNKPINKGRKRAAVGQESPGGLEAGNAKAPKLQDLAKKAAPAERQIDLQR
In the case of B2, the “Fold Change” value is listed as 0.08984 and the “Log (Fold Change)” value is -1.047.

B3: sp¦Q9GZY6¦NTAL_HUMAN (protein, UniProt Q9GZY6 1-243, looked up)
Linker for activation of …: MSSGTELLWPGAALLVLLGVAASLCVRCSRPGAKRSEKIYQQRSLREDQQSFTGSRTYSLVGQAWPGPLADMAPTRKDKLLQFYPSLEDPASSRYQNFSKGSRHGSEEAYIDPIAMEYYNWGRFSKPPEDDDANSYENVLICKQKTTETGAQQEGIGGLCRGDLSLSLALKTGPTSGLCPSASPEEDEESEDYQNSASIHQWRESRKVMGQLQREASPGPVGSPDEEDGEPDYVNGEVAATEA
Turning to B3, the “Fold Change” value is recorded as 0.3739 and the “Log (Fold Change)” value is given as -0.4273.
